Measured values reported in article PMC9513430.

Molecular target: Type I collagen
Test: adhesion of whole bacteria to a coated plate (crystal violet staining); type I collagen (0.002-2 mg in 0.25 M acetic acid) coated on 96-well plates overnight at 4°C, blocked with BSA; overnight cultures of S. mutans (1 x 10^8-1 x 10^10 CFU) 3 h at 37°C; fixed, stained with crystal violet, OD595; percent of parental strain SN74

“Cnm of Streptococcus mutans strain TW871, expressed in complemented strain SN74CNDcomp (natural protein)” showed a percent of the collagen binding of parental strain SN74 of 60%.
